Series [1] concerns the target neutral lactase (GODO-YNL2; unfragmented high molecular fraction F-1, about 120 kDa), P00723.

Chain of BSA, P02769 (P02769 25-607): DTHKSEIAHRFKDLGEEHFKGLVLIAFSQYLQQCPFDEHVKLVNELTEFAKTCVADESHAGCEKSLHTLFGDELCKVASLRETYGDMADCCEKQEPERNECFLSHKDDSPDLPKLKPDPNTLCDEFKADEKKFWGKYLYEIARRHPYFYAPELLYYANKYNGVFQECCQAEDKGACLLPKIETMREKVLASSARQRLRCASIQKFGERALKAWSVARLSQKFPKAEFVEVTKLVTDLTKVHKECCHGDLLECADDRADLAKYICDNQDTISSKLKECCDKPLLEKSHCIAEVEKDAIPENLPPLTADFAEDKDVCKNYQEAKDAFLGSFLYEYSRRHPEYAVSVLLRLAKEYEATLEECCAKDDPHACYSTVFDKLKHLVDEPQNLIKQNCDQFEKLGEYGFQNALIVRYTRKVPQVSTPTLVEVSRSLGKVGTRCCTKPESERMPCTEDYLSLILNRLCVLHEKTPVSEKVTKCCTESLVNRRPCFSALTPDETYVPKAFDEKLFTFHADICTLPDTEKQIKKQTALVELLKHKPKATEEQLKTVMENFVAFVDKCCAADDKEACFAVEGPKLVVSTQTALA
Chain of neutral lactase (GODO-YNL2; unfragmented high molecular fraction F-1, about 120 kDa), P00723 (P00723 whole entry, the tested form may be a part): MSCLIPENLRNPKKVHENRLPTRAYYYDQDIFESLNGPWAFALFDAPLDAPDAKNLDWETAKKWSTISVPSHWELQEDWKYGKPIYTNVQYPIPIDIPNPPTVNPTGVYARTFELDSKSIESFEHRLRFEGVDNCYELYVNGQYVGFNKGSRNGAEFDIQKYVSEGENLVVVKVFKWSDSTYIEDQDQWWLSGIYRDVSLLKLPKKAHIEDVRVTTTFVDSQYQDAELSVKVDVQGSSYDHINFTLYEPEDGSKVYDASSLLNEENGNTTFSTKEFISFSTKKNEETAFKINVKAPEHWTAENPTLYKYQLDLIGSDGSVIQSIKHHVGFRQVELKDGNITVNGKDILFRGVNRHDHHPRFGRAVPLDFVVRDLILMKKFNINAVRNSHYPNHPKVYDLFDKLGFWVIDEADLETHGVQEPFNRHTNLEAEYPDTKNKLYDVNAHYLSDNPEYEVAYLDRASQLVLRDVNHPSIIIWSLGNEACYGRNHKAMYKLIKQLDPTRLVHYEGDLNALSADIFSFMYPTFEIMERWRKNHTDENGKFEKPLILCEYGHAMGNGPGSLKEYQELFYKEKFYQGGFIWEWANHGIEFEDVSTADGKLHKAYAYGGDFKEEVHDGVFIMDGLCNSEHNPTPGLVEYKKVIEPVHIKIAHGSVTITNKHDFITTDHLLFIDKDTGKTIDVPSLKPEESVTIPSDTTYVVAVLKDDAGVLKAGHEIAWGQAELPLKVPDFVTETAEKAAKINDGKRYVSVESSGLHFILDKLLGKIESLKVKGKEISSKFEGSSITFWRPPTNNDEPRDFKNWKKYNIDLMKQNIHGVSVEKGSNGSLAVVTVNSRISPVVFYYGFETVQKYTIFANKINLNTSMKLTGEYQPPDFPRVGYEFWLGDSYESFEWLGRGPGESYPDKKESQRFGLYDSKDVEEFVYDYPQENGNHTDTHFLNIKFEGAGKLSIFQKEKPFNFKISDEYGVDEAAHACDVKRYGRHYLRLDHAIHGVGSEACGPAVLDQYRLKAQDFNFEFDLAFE

B1: proteinase B derived from Kluyveromyces lactis (mature enzyme) (protein)
chain: SFNTQNSAPWGLARISHREKLNLGSFNKYLYDDDAGKGVTAYVVDTGVNVNHKDFDGRAVWGKTIPKDDPDVDGNGHGTHCAGTIGSVHYGVAKNADIVAVKVLRSNGSGTMSDVVKGVEYVAEAHKKAVEEQKKGFKGSTANMSLGGGKSPALDLAVNAAVKAGVHFAVAAGNENQDACNTSPAAAENAITVGASTLSDERAYFSNWGKCVDIFGPGLNILSTYIGSDTATATLSGTSMATPHVVGLLTYFLSLQPDADSEYFHAAGGITPSQLKKKLIDFSTKNVLSDLPEDTVNY
As for B1, the SUBSTRATE SPECIFICITY (relative protease activity, K. lactis PrB) in series [1] stood at 1160; with BSA, P02769 it was 0; with Azocasein, 1; in the series with Azocoll it was 1.9; with Casein, 0; in the series with FITC-casein, 78.

The values are drawn from patent publication US20190075806.
